What was measured:
[1] = target: hemagglutinin (HA) of influenza A/New York/107/03 (PR8) (influenza A virus A/New York/107/03 (PR8)); assay: cell-based or functional assay
[2] = target: hemagglutinin (HA) of influenza A/waterfowl/Hong Kong/MPA892/06 (H4) (influenza A virus A/waterfowl/Hong Kong/MPA892/06 (H4)); assay: cell-based or functional assay
[3] = target: hemagglutinin (HA) of influenza A/chicken/Germany/n/49 (H10N7) (influenza A virus A/chicken/Germany/n/49 (H10N7)); assay: cell-based or functional assay
[4] = target: hemagglutinin (HA) of influenza A/Brisbane/10/07 (H3N2) (influenza A virus A/Brisbane/10/07 (H3N2)); assay: cell-based or functional assay
[5] = target: hemagglutinin (HA) of influenza virus H7N9 A/Anhui/1/13 (influenza A virus); assay: cell-based or functional assay
[6] = target: hemagglutinin (HA) of influenza virus H7N3 A/NIBRG/60 (A/mallard/Netherlands/12/00) (influenza A virus); assay: cell-based or functional assay
[7] = target: hemagglutinin (HA) of influenza virus H5N1 A/Vietnam/1194/04 (influenza A virus); assay: cell-based or functional assay
[8] = target: hemagglutinin (HA) of influenza virus H3N2 A/Brisbane/10/07 (influenza A virus); assay: cell-based or functional assay
[9] = target: HA of H7N3 A/NIBRG/60 (A/mallard/NL/12/00) (influenza A virus); assay: cell-based or functional assay
[10] = target: HA of H5N1 A/Vietnam/1194/04 (influenza A virus); assay: cell-based or functional assay
[11] = target: HA of H4 A/WF/HK/MPA892/06 (influenza A virus); assay: cell-based or functional assay
[12] = target: HA of H3N2 A/HK/1/68 (influenza A virus) (UniProt Q91MA7); assay: cell-based or functional assay
[13] = target: HA of H5N1 A/PR8 H5N1 HK97 (influenza A virus); assay: cell-based or functional assay
[14] = target: HA of H3N2 A/Brisbane/10/2007 (influenza A virus); assay: cell-based or functional assay
[15] = target: HA of H1N1 A/Puerto Rico/8/34-MA (influenza A virus); assay: cell-based or functional assay
[16] = target: HA of H1N1 A/New Caledonia/20/1999 (influenza A virus); assay: cell-based or functional assay
[17] = target: HA of H10N7 A/Chick/Germany/N/49 (influenza A virus); assay: cell-based or functional assay
[18] = target: HA of H3N2 A/Wisconsin/67/2005 (influenza A virus); assay: cell-based or functional assay
[19] = target: hemagglutinin (HA) of influenza virus B/Harbin/7/94 (Yamagata) (influenza B virus); assay: cell-based or functional assay
[20] = target: hemagglutinin (HA) of influenza virus B/Lee/40 (Old) (influenza B virus) (UniProt P03460); assay: cell-based or functional assay
[21] = target: hemagglutinin (HA) of influenza virus B/Florida/04/06 (Yamagata) (influenza B virus); assay: cell-based or functional assay
[22] = target: hemagglutinin (HA) of influenza virus B/Brisbane/60/08 (Victoria) (influenza B virus); assay: cell-based or functional assay
[23] = target: hemagglutinin (HA) of influenza virus B/Malaysia/2506/04 (Victoria) (influenza B virus); assay: cell-based or functional assay
[24] = target: HA of B/Florida/04/2006 (Yamagata) (influenza B virus); assay: AlphaLISA competition vs CR8033
[25] = target: HA of B/Florida/04/2006 (Yamagata) (influenza B virus); assay: cell-based or functional assay
[26] = target: HA of B/Malaysia/2506/04 (Victoria) (influenza B virus); assay: cell-based or functional assay
[27] = target: HA of B/Brisbane/60/2008 (Victoria) (influenza B virus); assay: cell-based or functional assay
[28] = target: HA of B/Harbin/7/94 (Yamagata) (influenza B virus); assay: cell-based or functional assay

B1: SD3099 (VHH)
VHH: EVQLVESGGGLVQPGGSLRLSCAASGRTLSIYSMGWFRQAPGKEREFVATIGWNSGRTFYPDSVKGRFTISRDNSKNTLYLQMNSLRAEDTAVYYCAAAKGPLRLSSQADYWGQGTLVTVSS
VNA IC50 [1]: 16 nM
VNA IC50 [2]: 2 nM
VNA IC50 [3]: 5 nM
VNA IC50 [4]: 3 nM

B2: MD2313 (bispecific antibody)
chain: EVQLVESGGGLVQAGDSLRISCAASGRTLSIYSMGWFRQAPGKEREFVATIGWNSGRTFYPDSLKGRFTISRDNARNTLYLQMNNLRPEDTAVYYCAAAKGPLRLSSQADYWGQGTQVTVSSGGGGSGGGGSEVQLVESGGGLVQAGDSLRISCAASGRTLSIYSMGWFRQAPGKEREFVATIGWNSGRTFYPDSLKGRFTISRDNARNTLYLQMNNLRPEDTAVYYCAAAKGPLRLSSQADYWGQGTQVTVSSGGGGSGGGGSEVQLVESGGGLVQPGGSLRLSCAATGFTLENKAIGWFRQTPGSEREGVLCISKSGSWTYYTDSMRGRFTISRDNAENTVYLQMDSLKPEDTAVYYCATTTAGGGLCWDGTTFSRLASSWGQGTQVTVSS
average neutralization titer [5]: 21.7 nM
average neutralization titer [6]: 6.5 nM
average neutralization titer [7]: > 1000 nM
average neutralization titer [8]: 7.7 nM

B3: SD1069 (VHH)
VHH: EVQLVESGGGLVQAGDSLRLSCAASGPTFGMSAMGWFRQAPGKEREFVAAISGLGNPNYSDDVKGRFTISRENGRNTVYLQMNSLKPEDTAVYYCAQRKVYHVQGGDRPQAYDYWGQGTQVTVSS
VNA titer [9]: > 1000 nM
VNA titer [10]: 74 nM
VNA titer [11]: > 1000 nM
VNA titer [12]: > 1000 nM
VNA titer [13]: 242 nM
VNA titer [14]: > 1000 nM
VNA titer [15]: 12.8 nM
VNA titer [16]: 20.8 nM
VNA titer [17]: > 1000 nM

B4: SD3097 (VHH)
VHH: EVQLLESGGGLVQPGGSLRLSCAASGRTYAMGWFRQAPGKEREFVAAINALGTRTYYADSVKGRFTISRDNSKNTLYLQMNSLRAEDTAVYYCTAQGQWRAAPVAVAAEYEFWGQGTLVTVSS
VNA IC50 [1]: 8 nM
VNA IC50 [2]: 6 nM
VNA IC50 [3]: 6 nM
VNA IC50 [4]: 17 nM

B5: SD1076 (VHH)
VHH: EVQLVESGGGLVQAGGSLTLSCAGSGFAFSIATMGWYRQAPGKQRELVADITSGGSTNYADSVKGRFTISRDNAKNTVYLQMNSLKPEDTAVYYCNADSLATGWRQYSYWGKGTQVTVSS
VNA titer [9]: > 1000 nM
VNA titer [18]: > 1000 nM
VNA titer [10]: 84.7 nM
VNA titer [13]: 66.8 nM
VNA titer [14]: > 1000 nM
VNA titer [15]: 8.7 nM
VNA titer [16]: 22.1 nM

B6: MD1224 (VHH)
chain: EVQLVESGGGLVQPGGSLKLSCAASGFTFSTSWMYWLRQAPGKGLEWVSVINTDGGTYYADSVKDRFTISRDNAKDTLYLQMSSLKSEDTAVYYCAKDWGGPEPTRGQGTQVTVSSAAAGGGGSGGGGSGGGGSGGGGSGGGGSGGGGSGGGGSEVQLVESGGGLVQPGGSLKLSCAASGFTFSTSWMYWLRQAPGKGLEWVSVINTDGGTYYADSVKDRFTISRDNAKDTLYLQMSSLKSEDTAVYYCAKDWGGPEPTRGQGTQVTVSS
neutralization titer [19]: 4.5 nM
neutralization titer [20]: 33 nM
neutralization titer [21]: 0.8 nM
neutralization titer [22]: 4.1 nM
neutralization titer [23]: 2.7 nM

B7: SD1073 (VHH)
VHH: EVQLVESGGGLVQAGGSLRLSCAASGSAFSIAAMGWYRQAPGKQRELVATITTGGSTNYADSVKGRFTISRDNSKNTAYLQMNSLKPEDTAVYYCTAKSVVAETFGDLYNYWGQGTQVTVSS
VNA titer [9]: 135 nM
VNA titer [10]: 224 nM
VNA titer [11]: > 1000 nM
VNA titer [12]: > 1000 nM
VNA titer [13]: 179 nM
VNA titer [14]: > 1000 nM
VNA titer [15]: 89.6 nM
VNA titer [16]: 98.9 nM
VNA titer [17]: 317 nM

B8: MD1222 (bispecific antibody)
chain: EVQLVESGGGLVQPGGSLRLSCAATGFTLENKAIGWFRQTPGSEREGVLCISKSGSWTYYTDSMRGRFTISRDNAENTVYLQMDSLKPEDTAVYYCATTTAGGGLCWDGTTFSRLASSWGQGTQVTVSSAAAGGGGSGGGGSGGGGSGGGGSGGGGSGGGGSGGGGSEVQLVESGGGLVQPGGSLKLSCAASGFTFSTSWMYWLRQAPGKGLEWVSVINTDGGTYYADSVKDRFTISRDNAKDTLYLQMSSLKSEDTAVYYCAKDWGGPEPTRGQGTQVTVSS
neutralization titer [19]: 7.2 nM
neutralization titer [20]: 12.7 nM
neutralization titer [21]: 2.1 nM
neutralization titer [22]: 3 nM
neutralization titer [23]: 3.6 nM

B9: SD1085 (VHH)
VHH: EVQLVESGGGLVQAGDSLRLSCVISGLSLDTYAVGWFRQAPGKEREGITCISSGHGMTYYADSVKGRFTVSTDNAKNTVYLQMNGLQPEDTARYYCATESRYYCSDNWPAPQRYIYWGQGTQVTVSS
pIC50 [24]: < 7
VNA titer [25]: 187 nM
VNA titer [26]: 66.3 nM
VNA titer [27]: 40.7 nM
VNA titer [28]: 631 nM

Reference: patent US20190359693A1
